According to article PMC11216086, “The structure of TRAF7 coiled-coil trimer provides insight into its function in zebrafish embryonic development” (Journal of Molecular Cell Biology, 2024):
Positions count from the first letter of the chain named.

B1: human TRAF7 ZF-CC (fragment 221–379 aa) (domain or fragment, UniProt Q6Q0C0 221-379, looked up)
chain: DHEGSCDYRPVRCPNNPSCPPLLRMNLEAHLKECEHIKCPHSKYGCTFIGNQDTYETHLETCRFEGLKEFLQQTDDRFHEMHVALAQKDQEIAFLRSMLGKLSEKIDQLEKSLELKFDVLDENQSKLSEDLMEFRRDASMLNDELSHINARLNMGILGS
notes: source: E. coli BL21 (DE3), purified (nickel-NTA, Superdex 200 size-exclusion chromatography)
B2: human TRAF7 CC (270–379 aa) F337S (domain or fragment, UniProt Q6Q0C0 270-379, looked up)
chain: GNQDTYETHLETCRFEGLKEFLQQTDDRFHEMHVALAQKDQEIAFLRSMLGKLSEKIDQLEKSLELKSDVLDENQSKLSEDLMEFRRDASMLNDELSHINARLNMGILGS
notes: as for B1
B3: human TRAF7 CC (fragment 270–379 aa) (domain or fragment, UniProt Q6Q0C0 270-379, looked up)
chain: B2 chain with S68F
notes: Cloned in pET32M3C; tags 'were cleaved by HRV 3C protease when needed'; also called TRAF7 CC region; TRAF7 coiled-coil domain; source: E. coli BL21 (DE3), purified (nickel-NTA, Superdex 200 size-exclusion chromatography)
B4: human TRAF7 CC (270–379 aa) I368S (domain or fragment, UniProt Q6Q0C0 270-379, looked up)
chain: B2 chain with S68F, I99S
notes: as for B1
B5: human TRAF7 CC (270–379 aa) Q310L (domain or fragment, UniProt Q6Q0C0 270-379, looked up)
chain: B2 chain with Q41L, S68F
notes: as for B1
B6: human TRAF7 CC (270–379 aa) R371G (domain or fragment, UniProt Q6Q0C0 270-379, looked up)
chain: B2 chain with S68F, R102G
notes: Variant found in patients with developmental disorders; source: E. coli BL21 (DE3), purified (nickel-NTA, Superdex 200 size-exclusion chromatography)
B7: human TRAF7 CC (270–379 aa) K346E (domain or fragment, UniProt Q6Q0C0 270-379, looked up)
chain: B2 chain with S68F, K77E
notes: as for B6

Target: the molecule itself
Assay: SEC-MALS; Superdex 200 gel filtration in 50 mM Tris pH 8.0, 100 mM NaCl, 10 mM EDTA, 1 mM DTT; three-angle light scattering (mini-DAWN TRISTAR) and refractive index detector; self-association (trimer)
With B1 the “stoichiometry N” value was 3.
B2: binds.
In the case of B3, the “stoichiometry N” value is reported as 3.
B4: binds.
B5: binds.
B6: binds.
B7: binds.
